Laboratory results taken from the supplement of paper PMC9112550, “Optimization of the antimicrobial peptide Bac7 by deep mutational scanning” (BMC Biology, 2022).

test system: Escherichia coli TOP10; experiment: shrunken log2 fold change of peptide-encoding DNA abundance (4.5 h post-induction vs induction); higher = less antimicrobial activity (less host growth inhibition); conditions: time post-induction: 4.5 h; library: site-saturation at positions 5, 18, 19, 20
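Also: peptides expressed intracellularly from a pBAD plasmid library in pooled LB shake-flask culture, induced with 0.3% L-arabinose, DNA abundance read by NGS, three biological replicates, DESeq2 with apeglm shrinkage.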

| Sequence | shrunken log2 fold change |
| --- | --- |
| RRIRFRPPRLPRPRPRPCEWPRP | 0.134 |
| RRIRARPPRLPRPRPRPDANPRP | 0.275 |
| RRIRARPPRLPRPRPRPMRWPRP | 0.618 |
| RRIRDRPPRLPRPRPRPMCMPRP | 0.0237 |
| RRIRHRPPRLPRPRPRPAGLPRP | 0.269 |
| RRIRMRPPRLPRPRPRPVFTPRP | 0.128 |
| RRIRQRPPRLPRPRPRPANHPRP | -0.728 |
| RRIRSRPPRLPRPRPRPICGPRP | -0.056 |
| RRIRYRPPRLPRPRPRPATWPRP | -0.154 |
| RRIRKRPPRLPRPRPRPWMGPRP | -0.0352 |
| RRIRHRPPRLPRPRPRPHRAPRP | 0.0912 |
| RRIRIRPPRLPRPRPRPPHDPRP | -0.0948 |
| RRIRMRPPRLPRPRPRPYPNPRP | -0.021 |
| RRIRTRPPRLPRPRPRPFYCPRP | -0.505 |
| RRIRYRPPRLPRPRPRPAAYPRP | -0.387 |
| RRIRPRPPRLPRPRPRPYGAPRP | -0.306 |
| RRIRTRPPRLPRPRPRPTGIPRP | 0.00119 |
| RRIRWRPPRLPRPRPRPLATPRP | 0.766 |
| RRIRKRPPRLPRPRPRPKHGPRP | 0.157 |
| RRIRWRPPRLPRPRPRPYGHPRP | -0.478 |
| RRIRHRPPRLPRPRPRPWSWPRP | -0.304 |
| RRIRFRPPRLPRPRPRPMYAPRP | -0.406 |
| RRIRARPPRLPRPRPRPGVNPRP | -0.238 |
| RRIRMRPPRLPRPRPRPRSSPRP | 0.923 |
| RRIRERPPRLPRPRPRPARIPRP | -0.246 |

| Sequence | shrunken log2 fold change |
| --- | --- |
| RRIRARPPRLPRPRPRPGEIPRP | 0.599 |
| RRIRQRPPRLPRPRPRPWLPPRP | -0.181 |
| RRIRFRPPRLPRPRPRPHWYPRP | -0.343 |
| RRIRERPPRLPRPRPRPQYTPRP | -1.16 |
| RRIRERPPRLPRPRPRPCYNPRP | -0.137 |
| RRIRQRPPRLPRPRPRPYNYPRP | -1.44 |
| RRIRGRPPRLPRPRPRPLRTPRP | 1.69 |
| RRIRRRPPRLPRPRPRPNWLPRP | 0.121 |
| RRIRTRPPRLPRPRPRPFVMPRP | -0.277 |
| RRIRKRPPRLPRPRPRPENGPRP | 0.0267 |
| RRIRRRPPRLPRPRPRPLSCPRP | -0.146 |
| RRIRERPPRLPRPRPRPHNRPRP | -0.0587 |
| RRIRARPPRLPRPRPRPPDQPRP | 1.16 |
| RRIRRRPPRLPRPRPRPWAWPRP | 0.0216 |
| RRIRFRPPRLPRPRPRPMFGPRP | 0.312 |
| RRIRVRPPRLPRPRPRPPPEPRP | 0.755 |
| RRIRDRPPRLPRPRPRPLQHPRP | 0.0148 |
| RRIRARPPRLPRPRPRPLVYPRP | -0.372 |
| RRIRHRPPRLPRPRPRPRKNPRP | 0.00268 |
| RRIRVRPPRLPRPRPRPDRYPRP | -0.00296 |
| RRIRARPPRLPRPRPRPRKAPRP | 0.0975 |
| RRIRTRPPRLPRPRPRPTQDPRP | 0.837 |
| RRIRPRPPRLPRPRPRPQWYPRP | -0.257 |
| RRIRGRPPRLPRPRPRPVEHPRP | 0.117 |
| RRIRIRPPRLPRPRPRPDGRPRP | -0.13 |

| Sequence | shrunken log2 fold change |
| --- | --- |
| RRIRVRPPRLPRPRPRPIKEPRP | -0.327 |
| RRIRTRPPRLPRPRPRPCNFPRP | -1.39 |
| RRIRLRPPRLPRPRPRPPVCPRP | 0.124 |
| RRIRLRPPRLPRPRPRPMSRPRP | -0.00152 |
| RRIRVRPPRLPRPRPRPGEIPRP | 0.0835 |
| RRIRLRPPRLPRPRPRPWGLPRP | 0.171 |
| RRIRQRPPRLPRPRPRPSWTPRP | -0.15 |
| RRIRGRPPRLPRPRPRPRMQPRP | 0.494 |
| RRIRKRPPRLPRPRPRPIFSPRP | -0.143 |
| RRIRARPPRLPRPRPRPVYLPRP | -0.622 |
| RRIRERPPRLPRPRPRPLNHPRP | -0.443 |
| RRIRVRPPRLPRPRPRPPNWPRP | 0.293 |
| RRIRARPPRLPRPRPRPGFEPRP | 0.735 |
| RRIRCRPPRLPRPRPRPEFYPRP | -0.356 |
| RRIRPRPPRLPRPRPRPQRYPRP | -0.0398 |
| RRIRFRPPRLPRPRPRPGCMPRP | -0.178 |
| RRIRSRPPRLPRPRPRPMWEPRP | 0.0252 |
| RRIRPRPPRLPRPRPRPCYSPRP | -0.507 |
| RRIRYRPPRLPRPRPRPKIYPRP | -0.884 |
| RRIRFRPPRLPRPRPRPPVHPRP | 0.119 |
| RRIRNRPPRLPRPRPRPWYSPRP | -2.32 |
| RRIRARPPRLPRPRPRPNSDPRP | 0.0804 |
| RRIRNRPPRLPRPRPRPLEGPRP | 0.033 |
| RRIRARPPRLPRPRPRPEMTPRP | 1.23 |
| RRIRFRPPRLPRPRPRPRLMPRP | -0.0982 |
